Assay results as given in PMC11946513 (The Journal of Biological Chemistry, 2025).

Molecular target: T1, KAT6A MYST domain (KAT6A 501-784) (human, UniProt Q92794 501-784, autoacetylated K604 (as seen in the structure))
T1 construct: KAT6A (MOZ), human, acetyltransferase (MYST) domain, residues 501-784, NCBI NP_006757.2; also called pHis-MYST domain; not shown: polyhistidine, N-terminal, cleaved
Test: crystal structure; KAT6A MYST domain at 8 mg/ml complexed with H3K14-CoA in a 1:10 M ratio, 4 h at 4 °C; sitting drop, 1.25 M NH4SO4, 0.28 M NaCl, 0.1 M HEPES pH 6.4, 21 °C
Details: both partners purified

T1 sequence (Q92794 501-784): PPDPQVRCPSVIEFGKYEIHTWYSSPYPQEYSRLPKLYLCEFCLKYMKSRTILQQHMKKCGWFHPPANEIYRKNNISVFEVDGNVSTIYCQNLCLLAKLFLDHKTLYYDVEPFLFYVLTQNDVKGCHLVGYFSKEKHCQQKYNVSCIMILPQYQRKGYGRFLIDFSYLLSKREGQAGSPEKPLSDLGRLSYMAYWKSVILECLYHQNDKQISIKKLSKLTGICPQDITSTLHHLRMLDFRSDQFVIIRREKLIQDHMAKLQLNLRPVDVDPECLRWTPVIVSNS

B1: H3K14-CoA bisubstrate inhibitor (peptide)
peptide: QTARKSTGGKAPRKQLATK
modifications: ε-amino group of K14 covalently attached to CoA through a non-native acetyl bridge; 6-aminohexanoic acid (Ahx) linker on the N-terminus
notes: histone H3 tail, residues 5-23; Made on Rink Amide resin, so the C-terminus is probably an amide (surmised); Only residues 10-17 are resolved in the structure; also called peptidyl-CoA analogue; H3 (5-23) with K14 attached to CoA; source: synthetic peptide (manual Fmoc synthesis on Nova PEG Rink Amide, HPLC purified, coupled to Coenzyme A)
binding result: binds
